Experiments:
[1] = biological target: Anti-P. aeruginosa O6ad Fab, c-myc- and 6× His-tagged (human); experiment: ELISA, rAb coated, anti-tag IgG titrated (FIG. 7)
[2] = biological target: Anti-P. aeruginosa O6ad scFv, c-myc- and 6× His-tagged (human); experiment: ELISA, rAb coated, anti-tag IgG titrated (FIG. 7)
[3] = biological target: Anti-P. aeruginosa O6ad Fab, c-myc- and 6× His-tagged (human); experiment: cell-based or functional assay
[4] = biological target: Anti-P. aeruginosa O6ad scFv, c-myc- and 6× His-tagged (human); experiment: cell-based or functional assay
[5] = biological target: Anti-P. aeruginosa O6ad Fab, c-myc- and 6× His-tagged (human); experiment: ELISA: anti-O6ad Fab coated, two-fold dilutions of anti-tag IgG, goat anti-mouse IgG-HRP
[6] = biological target: Anti-P. aeruginosa O6ad scFv, c-myc- and 6× His-tagged (human); experiment: ELISA: anti-O6ad scFv coated, two-fold dilutions of anti-tag IgG, goat anti-mouse IgG-HRP
[7] = biological target: Human complement C1q (human) (UniProt P02745); experiment: C1q deposition ELISA, anti-tag IgG alone at 66.67 nM
Sequence of UniProt P02745 (P02745 23-245 limits assumed, chain 1 of 3): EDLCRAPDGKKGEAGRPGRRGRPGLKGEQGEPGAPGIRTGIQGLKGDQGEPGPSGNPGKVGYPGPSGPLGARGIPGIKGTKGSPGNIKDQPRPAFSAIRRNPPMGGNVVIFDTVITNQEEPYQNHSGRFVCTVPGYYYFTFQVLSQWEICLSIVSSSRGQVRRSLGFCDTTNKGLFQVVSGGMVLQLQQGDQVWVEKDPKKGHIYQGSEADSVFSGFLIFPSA
Sequence of UniProt P02745 (P02746 28-253 limits assumed, chain 2 of 3, further chain): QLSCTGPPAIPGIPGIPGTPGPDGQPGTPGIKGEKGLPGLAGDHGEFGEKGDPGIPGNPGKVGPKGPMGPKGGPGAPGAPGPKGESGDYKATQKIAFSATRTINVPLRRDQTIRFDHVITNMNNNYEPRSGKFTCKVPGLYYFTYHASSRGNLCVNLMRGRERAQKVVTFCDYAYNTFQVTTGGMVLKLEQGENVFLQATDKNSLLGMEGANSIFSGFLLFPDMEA
Sequence of UniProt P02745 (P02747 29-245 limits assumed, chain 3 of 3, further chain): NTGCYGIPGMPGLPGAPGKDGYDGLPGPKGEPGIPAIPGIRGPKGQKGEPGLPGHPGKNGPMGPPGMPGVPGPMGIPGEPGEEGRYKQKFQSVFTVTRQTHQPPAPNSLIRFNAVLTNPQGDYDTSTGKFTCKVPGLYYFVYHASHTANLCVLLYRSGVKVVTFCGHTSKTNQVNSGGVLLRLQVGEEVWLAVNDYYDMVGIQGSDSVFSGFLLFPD

| fold binding relative to 9E10 [1] [fold] | fold binding relative to 9E10 [2] [fold] | % phagocytosed bacteria (P. aeruginosa O6ad, J774.1A) [3] [%] | fold increase of bacterial uptake over the control without antibodies, at 13.09 nM anti-tag IgG [3] [fold] | fold phagocytosis relative to Fab-9E10 [3] [fold] | % phagocytosed bacteria (P. aeruginosa O6ad, J774.1A) [4] [%] | fold increase of bacterial uptake over the control without antibodies, at 13.09 nM anti-tag IgG [4] [fold] | fold phagocytosis relative to scFv-9E10 [4] [fold] | EC50 (read off the curve) [5] [nM] | EC50 (read off the curve) [6] [nM] | fold C1q deposition relative to Penta-His [7] [fold] | Substance |
| --- | --- | --- | --- | --- | --- | --- | --- | --- | --- | --- | --- |
| < 10 | < 10 | 27 | 3.5 | > 1.2 | 42 | 10.6 | 2 | 1 | 1 | – | Anti-Penta-His IgG1 murine mAb (QIAgen) (antibody) |
| – | – | 18.8 | 3.5 | – | 24.8 | 4.6 | – | – | – | 1.4 | Murine mAb 9E10 (anti-c-myc IgG1) from hybridoma 1-9E10.2 (ATCC CRL-1729) (antibody) |

Reference: US20160215041A1
